Experimental findings from PMC6684798, “Structural basis for the target specificity of actin histidine methyltransferase SETD3” (Nature Communications, 2019) are described below.

In this assay the target is T1, SETD3 (Homo sapiens, UniProt Q86TU7).
T1 construct: GST (cleaved yes); made in house; host or cells: Escherichia coli BL21(DE3) CodonPlus
T1 sequence (Q86TU7 1-594): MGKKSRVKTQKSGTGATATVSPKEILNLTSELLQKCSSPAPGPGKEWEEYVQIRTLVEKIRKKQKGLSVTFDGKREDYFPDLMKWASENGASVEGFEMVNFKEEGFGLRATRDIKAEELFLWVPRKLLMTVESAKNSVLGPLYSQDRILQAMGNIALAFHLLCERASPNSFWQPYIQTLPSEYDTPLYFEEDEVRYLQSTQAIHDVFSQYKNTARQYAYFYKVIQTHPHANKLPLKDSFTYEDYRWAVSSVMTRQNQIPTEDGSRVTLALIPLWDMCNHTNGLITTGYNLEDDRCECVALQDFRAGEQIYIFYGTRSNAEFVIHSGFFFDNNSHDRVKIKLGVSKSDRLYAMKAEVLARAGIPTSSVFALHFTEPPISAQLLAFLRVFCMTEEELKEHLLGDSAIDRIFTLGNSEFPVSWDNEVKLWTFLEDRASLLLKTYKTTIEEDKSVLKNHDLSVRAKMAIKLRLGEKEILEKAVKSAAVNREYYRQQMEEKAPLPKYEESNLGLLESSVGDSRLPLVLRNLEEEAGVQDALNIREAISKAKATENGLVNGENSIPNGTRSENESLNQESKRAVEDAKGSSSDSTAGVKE
Briefly: SETD3 activity time course under conditions optimized for H73(66-80) (Supplementary Fig. 3a). The class given is biochemical. The settings on record: pH 8.0, room temperature; for CH3 transferred: [E]=0.18 µM, [SAM]=40 µM, [S]=20 µM. The protocol: Recombinant human SETD3 (pXC2003) was expressed as a GST-fusion[22] in Escherichia coli BL21(DE3) CodonPlus^TM cells (Stratagene). The SETD3 mutants at residue 255 (N255A; pXC2093 and N255V; pXC2094) were generated with Q5 Site-Directed Mutagenesis Kit (New England Biolabs), confirmed by sequencing and the same protocol for expression and purification were followed. Briefly, the purification was conducted in a BIO-RAD NGC^TM system using a three-column chromatography of glutathione-sepharose, HiTrap Q-HP and Superdex 200. The GST tag was removed by PreScisson Protease (purified in-house). The purified SETD3 proteins at a concentration ~25–35 mg/ml were kept at −80 °C in storage buffer for future use [20 mM Tris (pH 8.0), 200 mM NaCl, 5% glycerol, and 0.5 mM tris (2-carboxyethyl) phosphine (TCEP)]. […]
conditions optimized for H73(66-80) (red line): [E]=0.18 µM, [SAM]=40 µM, [S]=20 µM, pH 8.0 at room temperature for indicated reaction time. b, SETD3 activity on H73(66-80) at two difference temperatures under the conditions of [E]=0.18 µM, [SAM]=40 µM, [SH7 3]=20 µM at pH 8. 0 for 20 min reaction. c, SETD3 activity on K73 (66-80 ) at room temperature (~22 °C) and 37 °C under the conditions of increased amounts of [E]=15 µM, [SAM]=100 µM and [S K73]=700 µM at pH 8.0 for overnight reaction. Data represent the mean ± SD of N number of independent determinations (N=2 in panels a and b and N=4 in panel c) performed in duplicate. […]

Take “K73(66–80): K73-containing (H73K) actin peptide, residues 66–80 (TLKYPIEKGIVTNWD; UniProt P60709 66-80, looked up, variant H73K)”: the CH3 transferred is, setting by setting: (0 min, replicate 1) 0 µM; (0 min, replicate 2) 0 µM; (10 min, replicate 1) 0.00913 µM; (10 min, replicate 2) 0.005151 µM; (20 min, replicate 1) 0.005187 µM; (20 min, replicate 2) 0.000604 µM. Further, the CH3 transferred runs as follows: (30 min, replicate 1) 0.002842 µM; (30 min, replicate 2) -0.00142 µM. The “SETD3 activity under conditions optimized for H73 peptide” value ([E] = 0.18 µM, [SAM] = 40 µM, [S] = 20 µM) is on record as “no activity”.
